In publication PMC3578790, “Tight Interconnection and Multi-Level Control of Arabidopsis MYB44 in MAPK Cascade Signalling”:

Target: MYB44 (Arabidopsis thaliana? (Arabidopsis, …, UniProt Q9FDW1 1-305))
Assay: EMSA; no competitor; unlabelled MBSII 100x blocks the shift; unchanged with GST-MPK3 and/or GST-MKK4, with or without 0.5 mM ATP; 10 mM Tris pH 8.0, 5 mM MgCl2, 100 mM KCl, 0.02% Triton X-100, 0.1 mg/ml BSA, 0.25% Tween, 2.5 mM DTT, 3 ng/ul poly(dIdC); 30 min room temperature; 5% PAGE in 0.5x TBE or TAE (TAE main) at 4 C
Details: protein: recombinant; label: 5' Dy782 (Methods; called IRDye in Results); (only one strand printed)

Chain of MYB44 (Arabidopsis thaliana? (Q9FDW1 whole entry): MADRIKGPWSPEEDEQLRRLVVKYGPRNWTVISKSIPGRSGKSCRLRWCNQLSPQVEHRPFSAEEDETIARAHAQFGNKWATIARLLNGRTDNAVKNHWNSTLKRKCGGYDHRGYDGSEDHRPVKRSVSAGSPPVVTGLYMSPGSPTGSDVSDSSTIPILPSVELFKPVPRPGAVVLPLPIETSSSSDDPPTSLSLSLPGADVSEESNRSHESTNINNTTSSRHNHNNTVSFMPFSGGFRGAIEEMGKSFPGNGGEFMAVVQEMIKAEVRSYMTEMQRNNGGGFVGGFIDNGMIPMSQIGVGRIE

B1: MBSII (dsDNA)
DNA 1: AGCTTCAAAAGTTAGTTACG
DNA 2: CGTAACTAACTTTTGAAGCT
Question: Does B1 bind?
Answer: binds
